Assay results as given in PMC9701387, “CDH17 nanobodies facilitate rapid imaging of gastric cancer and efficient delivery of immunotoxin” (Biomaterials Research, 2022).

B1: CDH17 domain 1-3 (human), recombinant (domain or fragment)
chain: QEGKFSGPLKPMTFSIYEGQEPSQIIFQFKANPPAVTFELTGETDNIFVIEREGLLYYNRALDRETRSTHNLQVAALDANGIIVEGPVPITIKVKDINDNRPTFLQSKYEGSVRQNSRPGKPFLYVNATDLDDPATPNGQLYYQIVIQLPMINNVMYFQINNKTGAISLTREGSQELNPAKNPSYNLVISVKDMGGQSENSFSDTTSVDIIVTENIWKAPKPVEMVENSTDPHPIKITQVRWNDPGAQYSLVDKEKLPRFPFSIDQEGDIYVTQPLDREEKDAYVFYAVAKDEYGKPLSYPLEIHVKVKDINDNPPTC
notes: Cadherin-17 (CDH17, LI-cadherin), human, extracellular cadherin domains 1-3; soluble protein of about 40 kD; the supplementary methods (Additional file 1) may hold them; also called extracellular domain 1-3 of CDH17; CDH17 protein; source: E. coli BL21 (DE3), purified (Ni-NTA, Superdex gel filtration)
B2: E8 nanobody (VHH)
VHH: AVQLVESGGGLVQPGGSLRLSCTASGSILSFNSMGWHRQAPGRQRELVAGISIHKTSSNYANFVKGRFTISRDDAKNTVYLQMNSLKPEDTAVYYCAAVQRGQSRISYWGQGTQVTVSS
notes: from a naive alpaca VHH phage library; shorter CDR3 than A1; HA tag joined to the C-terminus by a GA linker; a cysteine is attached at the end of the HA tag; The purified protein was confirmed with His tag and HA tag antibodies; also called CDH17 nanobody E8; naked E8 nanobody; source: E. coli (pColdII vector), purified (Ni-NTA); not shown: HA, C-terminal, kept
B3: A1 nanobody (VHH)
VHH: AVQLVESGGGLVQAGDSLRLSCAASGRTFSSNGMGWFRQAPGKGREFVAAISWNAGTTLYTDSVKGRFTISRDNAKNTVYLQMNSLKPEDTAIYYCAAREYYGGSYYPSREYEYGYWGQGTQVTVSS
notes: from a naive alpaca VHH phage library; HA tag joined to the C-terminus by a GA linker; a cysteine is attached at the end of the HA tag; The purified protein was confirmed with His tag and HA tag antibodies; also called CDH17 nanobody A1; source: E. coli (pColdII vector), purified (Ni-NTA); not shown: HA, C-terminal, kept

What was measured:
E8-PE38 immunotoxin = E8-PE38 immunotoxin (alpaca (Lama pacos) | Pseudomonas …); test: SPR; format and conditions not told in the text shown; conditions: both partners purified
[1] = biological target: B1; test: as above; conditions: both partners purified

Binder | Kd (E8-PE38 immunotoxin) | Kd [1]
B1 | 86.9 nM | –
B2 | – | 70.3 nM
B3 | – | 377 nM
